Where a chain is given by its changes, count along the chain named. In names and notes the source's numbering stands.
B1: GST(541–605)PRG (domain or fragment)
chain: GKPKSSSQSTFHIPLSPVEVKPGNVRNIIQHFENNQQYDAPEPGTQRLSTGSFPEDLLESDSSRS
B2: GST(541–605, F572A)PRG (domain or fragment)
chain: B1 chain with F32A
B3: GST(541–605, I569A)PRG (domain or fragment)
chain: B1 chain with I29A
B4: GST(541–605, E573A)PRG (domain or fragment)
chain: B1 chain with E33A
B5: GST(541–605, I568A)PRG (domain or fragment)
chain: B1 chain with I28A

Target: F-actin (freshly polymerized actin) (UniProt P68135 1-377)
Assay: co-sedimentation

Binder	percent bound at 5 µM F-actin
B1	~75%
B2	~25%
B3	~25%
B4	~25%
B5	~25%

— publication PMC2728795 (Biochemistry, 2009)
